From the RNAGym collection of RNA variant scans (doi:10.1073/pnas.2313332121)

B1: TPR t1 (parent)
chain: GACCAAUCUGCCCUCAGAGCUCGAGAACAUCUUCGGAUGCAGAGGAGGCAGGCUUCGGUGGCGCGAUAGCGCCAACGUCCUCAACCUCCAAUGCAUCCCACCACAUGAUGAUGCCUGAAGAGCCUUGGUUUUUUG

Variants of: B1
Test: polymerase ribozyme fitness, log enrichment relative to wild type (log ratio); higher = more active; in vitro selection for triplet polymerase activity
Outline: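 Both subunits of a heterodimeric triplet polymerase ribozyme were given their own mutant library, built by PCR and transcribed. Each library was annealed with a biotinylated primer, the partner subunit and triplets, incubated frozen at −7 °C, and its extended constructs gel-excised, captured on streptavidin beads and amplified by RT-PCR, all in one round done in triplicate. Fitness is the logarithm of genotype enrichment relative to wild-type enrichment, with replicates averaged by inverse-variance weighting. That logarithm is base 2, and Illumina-sequenced genotypes needed ≥10 input reads and ≥1 read per output.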

Row | Variant | polymerase ribozyme fitness (log ratio)
1 | GUCCAUUCUGCCCUCAGAGCUCGAGAACAUCUUCGGAUGCAGAGGAGGCAGGCUUCGGUGGCGCGAUAGCGCCAACGUCCUCAACCUCCAAUGCAUCCCACCACAUGAUGAUGCCUGAAAAGCCUUGGUUUUUUG [A2U A6U G120A] | 0.00399
2 | GUCCAAUCUGCCCUCAGAGCUCGAGAGCAUCUUCGGAUCCAGAGGAGGCAGGCUUCGGUGCUGCGAUAGCGCCAACGUCCUCAUCCUCCAAUGCAUCCCACCACAUGAUGAUGCCUGAAGAGCCUUGGUUUUUUG [A2U A27G G39C G61C C62U A84U] | -7.51
3 | GUCCAUUCUGCCUUCAGAGUUCGAGAACAUCUUCGGAUGCAGAGGAGGCAGGCUUCAGUGGCGCGAUAGCGCCAACGUCCUGAACCUCCAAUGCAUCCCACCACAUGAUGAUGCCUGAAGAGCCUUGGUUUUUUG [A2U A6U C13U C20U G57A C82G] | -4.79
4 | GGCCAAUCUGCCCUCAGAGCUCGAGAACAUCUUCGGAUGCAGAGGAGGCAGGCUUCGGUGGCGCGAUAGCGCCAACGAUCUCAACCUCCAAUGCAUCCCACCACAUGAUGAUGCCUGAAGAGCCUUGGUUUUUUG [A2G U78A C79U] | 0.0458
5 | GGCCAAUCUGCCCUCAGAGCUCGAGAACAUCUUCGGAUGCAGAGGAGGCAGGCUUCGGUGGCGCGAUAGCGCCAACGCCCUCAACCUCCAAUGCAUCCCACCACAUGAUGAUGCCUGAAGAGCCUUGGUUUUUUG [A2G U78C] | -0.357
6 | GUCCAAUCUGCCCUCAGAGCUCGAGAACAUCUUCGGAUGCAGAGGAGGCCGGCUUUUGUGGCGCGAUAGCGCCAACGUCCUCAACCUCCAUUGCAUCCCACCACAUGAUGAUGCCUGAAGAGCGUUCCUUUUUUG [A2U A50C C56U G57U A91U C124G G127C G128C] | -4.54
7 | GUCCAAUCUGCCCUCAGUGCUCGAGAACUUCUUCGGAUGCUGAGGAGGCAGGCUUCGGUAGCGCGAUAGCGCCAACGUCCUCAACCUCCAAUGCAUCCCACCACAUGAUGAUGCCUGAAGAGCCUUGGUUUUUUG [A2U A18U A29U A41U G60A] | -5.23
8 | GUCCAAUCUGCCCUCAGAGCUCGAGAACAUCUUCGGGUGCAGAGGAGGCAGGCUUCGGUGGCGCGAUAGCGCCAAGGUCCUCAACCUCCAAUGCAUCCCACCACAUGAUGAUGCCUGAAGAGCCUUGGUUUUUUG [A2U A37G C76G] | -3.35
9 | GUCCAAUCUGCCCUCAGAGCUCGAGAACAUCUUCGGAUGCAGAGGAGGCUGGCUUCGGUGGCGCGAUAGCGGCAACGUCCUCAACCUCCAAUGCAUCCCACCACAUGAUGAUGCCUGAAGAGCCUUGGUUUUUUG [A2U A50U C72G] | -4.02
10 | GGCCAAUCUGCCCUCAGAGCUCGAGAACAUCUUCGGAGGCAUAGGAGGCAGGCUUCGGUGGCGCGAUAGCGCCAACGUCCUCAACCUCCAAUGCAUCCCACCACAUGAUGAUGCUUGAAGAGCCUUGGUUUUUUG [A2G U38G G42U C115U] | -3.06
11 | GUCCAAUCUGCCCUCAGAGCUCGAGAACAUCUUCGGAUGCAGUGGAGGCAGGGUUCGGUGGCGCGAUAGCGCUAACGUCCUCAACCUCCAAUGCAUCCCACCACAAGAUGAUGCCUGAAGAGCCUUGGUUUUUUG [A2U A43U C53G C73U U106A] | -7.47
12 | GUCCAAUCUGCCCUCAGAGCUCGAGAACAUCUUCGGAUGCAGCGGAGGCAGGCUUCGGAGGCGCGAUAGCGCCAACGUCCUCAACCUCCAAUGCAUCCCACCACAUGAUGAUGCCUGAAGAGCCUUGGUUUUUUG [A2U A43C U59A] | -5.8
13 | GUCCGAUCUGCCCUCAGAGCUCGAGAACAUCUUCGGAUGCAGAGGAGGCAGGCUUCGGUCGCGCGAUAGCGCCAACGUCCUCAACCUCCAAUGCAUCCCACCACAUGAUGAUGCCUGAAGAGCCUUGGUUUUUUG [A2U A5G G60C] | -4
14 | GUCCAAUCUGCCCUCAGAGCUCGAGAACAUCUUCGGUUGCACAGGAGGCAGGCUUCGGUGGCGCGAUAGCGCCAACGUCCUCAACCUCCAAUCCAUCCCACCACAUGAUGAUGCCUGAAAAGGCUUGGUAUUUUG [A2U A37U G42C G93C G120A C123G U130A] | -6.65
15 | GUCCGAUCUGCCCUCAGUGCUCGAGAACAUCUUCGGAUGCAGCGGAGGCAGGCUUUGGUGGCGCGAUAGCGCCAACGUCCUCAAACUCCAAUGCAUCCCACCACAUGAUGAUGCCUGAAGAGCCUCGGAUUUUUG [A2U A5G A18U A43C C56U C85A U126C U129A] | -3.94
16 | GUCCAAUCUGCCCUCUGAGCUCGAGAACAUCUUCGGAUGCAGAGGAGGCAGGCUUCGGUGGCGCGAUAGCGGCAACGUCCUCAACUUCCAAUGCAUCCCACCACAUGAUGAUGCCUGAAGAGCCUUGGUUUUUUG [A2U A16U C72G C86U] | -4.45
17 | GUCCACUCUGCCCUCAGAGCUCGAGAACAUCUUCGGAUGCAGAGGAGGCAGGCUUCGGUGGCGCGAUAGCGCCAAAGUCCUCAACCUCCAAUGCAUCCCACCACAUGAUGAUGCUUGAAGAGCCUAGGCAUUAUG [A2U A6C C76A C115U U126A U129C U130A U133A] | -4.89
18 | GGCCAACCCGCCCUCAGAGCUCGAGAACAUCUUCGGAUGCAGAGGAGGCAUGCUUCGGUGGCGCGAUAGCGCCAACGUCCUCAACCUCCAAUGCAUCCCACCACAUGAUGAUGCCUGAAGAGCCUUGGUUUUUUG [A2G U7C U9C G51U] | -2.87
19 | GUCCAUUCUGCCCUCAGAGCUCGAGAACAUCUUCGGAUGCAGAGGAGGCAGGCUUCUGUGGCGCGAUAGCGCCAACGUCCUCAACCUCCAAUGCAUCCCACCACAUGAUGAUGCCUGAACAGCCUUGGUUUUUUG [A2U A6U G57U G120C] | -4.53
20 | GUCCAAUCUGCCCUCAGAGCUCGAGAGCAUCUUCGGAUGCAGAGGAGGCAGGCGUCGGUGGCGCGAUAGCGCCAACGUCCUCAACCUCCAAUGCAUCCCACCACAUGAUGAUGCCUGAAGAGUCUUGGUUUUUUG [A2U A27G U54G C123U] | -3.79
21 | GUCCAAUCUGCCCUCAGAGCUCGAGAGCAUCUUCGGAUGCAGAGGAGGCAGGCUUCGGUGACGCGAUAGCGCCAACGUCCUCAACCUCCAAUGCAUCCCACCAAAUGAUGACGCCUGAAGAUCCUUGGUUUUUUG [A2U A27G G61A C104A U112C G122U] | -2.93
